B1: Neuronal tyrosine-phosphorylated phosphoinositide-3-kinase adapter 2 (Mus musculus), Q8BM65-4 (parent)
chain: MIPSKMMSANPEEDPLDTFFQYIEDMGMKAYDGLVIQNASDIARENDRLRNETKLAYLKEKNEKRRRQEETIKRIGGEVGRGQDASYAGKHFRMGFMTMPAPQDRLPHPCSSGFTVRSQSLHSVGGTEDDSSCGSRRQPPPKPKRDPSTKLSTSSETVNSTAASKSGRSLERAEGKFTVPASHSPPRASTSGHLFPSPGSQERNIKVSAKPRPHSDEYSKKIPPPKPKRNPNTQLSTSFDETYIKKHVPRRTSLPRDSSLSQVCSPAADPEEEEPVYIEMVGNILRDFRKEEDDQSEAVYEEMKYPIFDDLGHDSKCDFDHHSCSSQCATPTVPDLDFVKSSGPCTPKGLLCDIPPPFPNLLSHRPPLLVFPPAPVHCSPNSDESPLTPLEVTKLPVLENVSYMKQPPGACPSSLPSHGSSHAKDQTGALGPAPGASILSSSPPPPSTLYRTQSPHGYPKSHSTSPSPVSMGRSLTPLSLKRPPPYDAVHSGSLSRSSSSVPHTTPRPVSQDGAKMVNAAVNTYSAAQSGSRSRTPTSPLEELTSLFTSGRSLLRKSSSGRRSKEPAEKSTEELKVRSHSTEPLPKLDSKERGHYGSSSSREPVKAQEWDGTPGPPVVTSRMGRCSVSPTLLAGNHSSEPKVSCKLGRSASTSGVPPPSVTPLRQASDLQQSQVACMQWFHGDHTMLEMIEKKRCLCKEIKARQKTEKGLCKQDSMPILPSWKKNAGAKKYSPPPYSKQQTVFWDTAI
B2: Neuronal tyrosine-phosphorylated phosphoinositide-3-kinase adapter 1 (Mus musculus), Q6PFX7 (parent)
chain: MNLLYRKTKLEWRQHKEEEAKRSSSKEAAPTGPVGPGAVPGPGVRVRDIASLRRSLRMGFMTMPASQEHTPHPCRSTMAPRSLSCHSVGSMDSVGGGPGGGLTEDSSTRRPPAKPRRHPSTKLSMAGPGAETPPSKKAGSQKPAPECRESSRKVPPQKPRRSPNTQLSVSFDESCAPAPSPRGANLPLQRLSRASRITGDLDAGAQEEEPVYIEMVGDVFRGGGRSGGGLAGPPLGSGGPTPPAAADSDSEDSEAIYEEMKYPLPEEAGDGRANGPPPLTAPSPPQQTHILQPHPHPHRRPASALPSRRDGTPTKTTPCEIPPPFPNLLQHRPPLLAFPQAKSASRAPGDGVSRLPVLCHSKEPAGSTPAPQVPARERETPPLPPPPPAANLLLLGPSGRARSHSTPLPPQGSGQTRGERELPNSHSMICPKAAGVPAAHPAPAALLPGPPKDKAVSYTMVYSAVKVTTHSVLPAGPPLGVGEPKTEEISVLHGMLCASSRPPVPGKSSPHSGAMGSAAGVLHHRSCLASPHSLPDPTGGSLTPLWTYPATAAGLKRPPAYDSLKAGGVLNKGCGMGAPSPMVKIQLQEQGTDGGAFASISCAHVIASAGTPEEEEEMGAAFGAGWALQRKVLYGGRKAKEVDTEEDGARAWNGSTEGPGKVEHEDRGPVPSGIPVRSQGAEGLLARIHHDRGGSRTALPVPCQTFPACHRNGDFTGGYRLGRSASTSGVRQAALHTPRPCSQPRDALSQTHPVLPLPLPPQPARERDGKLLEVIERKRCVCKEIKARHRPDRGLCKQESMPILPSWRRVPEPRKSGTPPCRRQHTVLWDTAI

Variants of: B1
Conditions: with p85a_human PIK3R1, P27986
Target sequence in this assay (P27986 whole entry): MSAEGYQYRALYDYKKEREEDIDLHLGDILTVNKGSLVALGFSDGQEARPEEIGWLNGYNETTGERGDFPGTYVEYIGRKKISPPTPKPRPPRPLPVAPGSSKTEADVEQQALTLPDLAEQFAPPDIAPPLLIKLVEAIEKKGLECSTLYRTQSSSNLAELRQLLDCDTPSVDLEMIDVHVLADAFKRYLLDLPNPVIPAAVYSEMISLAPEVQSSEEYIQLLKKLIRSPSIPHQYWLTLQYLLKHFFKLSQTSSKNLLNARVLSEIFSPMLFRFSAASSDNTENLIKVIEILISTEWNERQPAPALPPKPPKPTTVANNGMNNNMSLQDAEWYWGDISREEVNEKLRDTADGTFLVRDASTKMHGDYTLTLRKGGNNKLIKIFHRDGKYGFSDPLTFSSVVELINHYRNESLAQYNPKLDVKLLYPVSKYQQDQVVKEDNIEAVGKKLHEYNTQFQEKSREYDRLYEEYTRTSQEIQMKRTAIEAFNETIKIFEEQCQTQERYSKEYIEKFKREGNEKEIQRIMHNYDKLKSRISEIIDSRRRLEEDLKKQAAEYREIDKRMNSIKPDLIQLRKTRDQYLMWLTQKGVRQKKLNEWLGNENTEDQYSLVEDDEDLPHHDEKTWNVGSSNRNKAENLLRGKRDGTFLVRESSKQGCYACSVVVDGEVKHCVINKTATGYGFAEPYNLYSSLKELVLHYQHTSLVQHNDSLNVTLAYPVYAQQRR

Row | Variant | effect of a mutation on the interaction
1 | Y300F | disrupting interaction
2 | Y277F | disrupting interaction

Variants of: B2
Conditions: with p85a_human PIK3R1, P27986
Target sequence in this assay (P27986 whole entry): as above

Row | Variant | effect of a mutation on the interaction
3 | Y212F | disrupting interaction
4 | Y257F | disrupting interaction

Variants of: B2
Conditions: with p85a_human PIK3R1, P27986
Remark: another data set of the same source
Target sequence in this assay (P27986 whole entry): as above

Row | Variant | effect of a mutation on the interaction
5 | Y257F | decreasing interaction

— IntAct's records for PubMed 21946561
